{"source": "patent US7439017B2", "about": "“Assays for measuring nucleic acid binding proteins and enzyme activities” (BioVeris Corporation, priority 1998, dated 2008)", "test_system": "RuBpy-labeled Sheep anti-mouse IgG coated beads", "test": "ECL-based assay for the measurement of protease activity", "type": "biochemical", "conditions": "in words, 30 minutes at 37° C., solution phase, FIG. 9", "method": "This assay system consists of a ruthenylated (RuBpy-labeled) substrate immobilized on paramagnetic beads and the enzyme of interest. The RuBpy label is released by the action of the enzyme. The ECL of the free label is measured using the ORIGEN Analyzer (IGEN International).\nDynabead® M280 Sheep anti-mouse IgG coated beads (IGEN International, Inc.) were RuBpy-labeled at a 200:1 challenge ratio of RuBpy to IgG to introduce RuBpy groups on the immobilized IgG molecules. The labeling was carried out using a derivative of RuBpy linked to an NHS ester (TAG-NHS, IGEN International) according to established procedures. The beads were then washed three times, thirty minutes each, at 4° C. with equal volumes of PBS, pH 7.8, and once overnight at 4° C. Replicate test samples were prepared with 100 μl of solutions containing known amounts of Proteinase K (Sigma) in phosphate buffered saline, pH 7.8 and 25 μl of 1.2 mg/ml TAG labeled Sheep anti-mouse beads. […] The reaction was quenched by the addition of 1 mL of a solution containing tripropylamine (ORIGEN Assay Buffer, IGEN International, Inc.) and the protease activity was quantitated on the ORIGEN 1.5 Analyzer with the solution phase default settings (i.e., the beads are kept in suspension so as to preferentially measure ECL at the electrode from RuBpy groups in solution) except for high vortex speed."}
{"molecule": "Proteinase K: Proteinase K (Sigma), protease measured in the ECL assay (protein, UniProt P06873 106-384, looked up) Proteinase K: AAQTNAPWGLARISSTSPGTSTYYYDESAGQGSCVYVIDTGIEASHPEFEGRAQMVKTYYYSSRDGNGHGTHCAGTVGSRTYGVAKKTQLFGVKVLDDNGSGQYSTIIAGMDFVASDKNNRNCPKGVVASLSLGGGYSSSVNSAAARLQSSGVMVAVAAGNNNADARNYSPASEPSVCTVGASDRYDRRSSFSNYGSVLDIFGPGTSILSTWIGGSTRSISGTSMATPHVAGLAAYLMTLGKTTAASACRYIADTANKGDLSNIPFGTVNLLAYNNYQA", "values": [{"measurement": "ECL signal as a function of the concentration of enzyme", "result": "directly related to the concentration of enzyme"}]}
